This note sets out measurements from publication PMC10414051, “FOXP1-GINS1 axis promotes DLBCL proliferation and directs doxorubicin resistance”.

For this data set, the target named is T1, FOXP1 (recombinant, pET28a) (UniProt Q9H334 1-677).
T1 sequence: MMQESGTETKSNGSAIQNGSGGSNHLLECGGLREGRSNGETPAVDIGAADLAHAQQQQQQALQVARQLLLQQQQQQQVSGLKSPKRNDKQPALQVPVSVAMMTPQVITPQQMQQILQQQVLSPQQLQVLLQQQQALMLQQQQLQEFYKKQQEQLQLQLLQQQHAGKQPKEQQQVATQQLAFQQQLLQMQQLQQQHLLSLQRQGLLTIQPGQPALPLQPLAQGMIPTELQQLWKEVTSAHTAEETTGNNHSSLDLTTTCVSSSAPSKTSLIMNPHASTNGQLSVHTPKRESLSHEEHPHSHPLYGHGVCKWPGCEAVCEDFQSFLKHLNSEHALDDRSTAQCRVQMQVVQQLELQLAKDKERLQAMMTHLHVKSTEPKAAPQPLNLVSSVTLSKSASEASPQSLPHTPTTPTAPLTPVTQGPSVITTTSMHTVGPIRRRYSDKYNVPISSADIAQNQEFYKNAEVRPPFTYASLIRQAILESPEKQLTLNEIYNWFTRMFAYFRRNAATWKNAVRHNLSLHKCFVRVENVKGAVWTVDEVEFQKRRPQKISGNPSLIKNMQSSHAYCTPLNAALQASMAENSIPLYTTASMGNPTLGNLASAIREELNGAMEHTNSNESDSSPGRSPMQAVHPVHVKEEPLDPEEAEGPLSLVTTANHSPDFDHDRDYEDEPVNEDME
Put plainly: EMSA; Nondenaturing PAGE EMSA, HRP-streptavidin detection; buffer, salt, pH and temperature not stated. The note with it: protein: recombinant; tags: His tag (implied by pET28a and Ni-NTA); chain copies: 2; blunt. Background: A gel shift assay detects complexes by their altered migration in electrophoresis.

B1: Probe A (GINS1 promoter FOXP1 site A) (dsDNA)
DNA 1: TCAAAAAGGCAATGTTTGCTGGGTG
DNA 2: CACCCAGCAAACATTGCCTTTTTGA
As for B1, the binding result is reported as “binds”.

B2: Probe B (GINS1 promoter FOXP1 site B) (dsDNA)
DNA 1: AGCTCAAGAGTTGTCGACCAGACTG
DNA 2: CAGTCTGGTCGACAACTCTTGAGCT
As to B2, the binding result is “binds”.
